Measurements from PMC13170346.
Values belong to the substance of their own block, whether it stands above or below them.

Assays:
[1] = system: His6-PomZ (Myxococcus xanthus (DK1622?)); assay: BLI; settings: 1 mM ATP, 10 mM MgCl2; 5' biotin-TEG on both strands; BLI: 50 mM HEPES/NaOH pH 7.2, 50 mM KCl, 0.1 mM EDTA, 10% glycerol, 10 mM MgCl2, 1 mM β-mercaptoethanol, 0.05% Tween 20, 1 mM ATP; 100 nM DNA loaded; assay …
[2] = molecular target: PomZ (Myxococcus xanthus) (UniProt Q1DEM0)
[3] = molecular target: T1, PomY624-682-mCh (gD domain) (Myxococcus xanthus (DK1622?)) (UniProt Q1DEM1); assay: BLI; settings: 5' biotin-TEG on both strands; BLI: 50 mM HEPES/NaOH pH 7.2, 50 mM KCl, 0.1 mM EDTA, 10% glycerol, 10 mM MgCl2, 1 mM β-mercaptoethanol, 0.05% Tween 20, 1 mM …; 100 nM DNA loaded; assay temp
T1 sequence: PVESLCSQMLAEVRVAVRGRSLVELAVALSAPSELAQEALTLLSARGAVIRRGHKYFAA

[4] = molecular target: T2, His6-PomZ (Myxococcus xanthus (DK1622?)) (UniProt Q1DEM0); assay: BLI; settings: 5' biotin-TEG on both strands; BLI: 50 mM HEPES/NaOH pH 7.2, 50 mM KCl, 0.1 mM EDTA, 10% glycerol, 10 mM MgCl2, 1 mM β-mercaptoethanol, 0.05% Tween 20, 1 mM …; 100 nM DNA loaded; assay temp
T2 sequence: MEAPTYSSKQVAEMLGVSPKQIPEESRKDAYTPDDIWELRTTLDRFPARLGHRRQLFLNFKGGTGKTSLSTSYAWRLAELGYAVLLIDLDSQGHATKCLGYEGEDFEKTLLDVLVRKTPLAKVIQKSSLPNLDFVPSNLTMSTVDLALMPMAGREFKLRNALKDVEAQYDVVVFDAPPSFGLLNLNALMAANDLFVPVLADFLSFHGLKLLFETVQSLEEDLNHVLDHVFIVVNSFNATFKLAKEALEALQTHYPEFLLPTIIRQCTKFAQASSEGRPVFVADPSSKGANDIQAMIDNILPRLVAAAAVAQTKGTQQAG

Substance: cluster3 promoter PCR fragment
Kd [1]: 24.3 µM

specific His6-PomZ ATPase activity (NADH-coupled assay, 4 µM His6-PomZ, with DNA) with purified Sumo-PomY^496-682-mCh, 2 to 10 µM (ATP h^-1 µM^-1) [2]: 11.6
Substance: His6-Sumo-PomY^496-682-mCh (domain or fragment)

Substance: GGGCCACCAAGCCCACCGCCGGCTCCAAGCGGCGGCGCCTGGAAGGCAAGAAGCGCACCTCCGAAAAAAAGGCCCTGAGAAACAGCAAATCCGGCTGGTGACCCAGGGTCCATCAGGACTCCAGTCACCCTGTCGCCGGACAGTCAGGGTGCGCCTAAAGTTTGCGAGCTCGCAGACGTTGCGAGGTCATCTGCTGCTCGCAGGGACCTCCTCCTGGGAATTTGCC (double strand) [cluster3 promoter PCR fragment]
binding [3]: no binding | Kd [4]: 24.3 µM
